The values below come from article doi:10.1101/2022.03.02.482641v1.

Substrate in the series: NC(=O)c1ccc[n+]([C@@H]2O[C@H](COP(=O)([O-])OP(=O)(O)OC[C@H]3O[C@@H](n4cnc5c(N)ncnc54)[C@H](O)[C@@H]3O)[C@@H](O)[C@H]2O)c1
Description: purified protein.

B1: hSARM1 (hSARM1 w.t., near-intact, 26ERL...GPT724) (Homo sapiens) (protein)
chain: ERLAVPGPDGGGGTGPWWAAGGRGPREVSPGAGTEVQDALERALPELQQALSALKQAGGARAVGAGLAEVFQLVEEAWLLPAVGREVAQGLCDAIRLDGGLDLLLRLLQAPELETRVQAARLLEQILVAENRDRVARIGLGVILNLAKEREPVELARSVAGILEHMFKHSEETCQRLVAAGGLDAVLYWCRRTDPALLRHCALALGNCALHGGQAVQRRMVEKRAAEWLFPLAFSKEDELLRLHACLAVAVLATNKEVEREVERSGTLALVEPLVASLDPGRFARCLVDASDTSQGRGPDDLQRLVPLLDSNRLEAQCIGAFYLCAEAAIKSLQGKTKVFSDIGAIQSLKRLVSYSTNGTKSALAKRALRLLGEEVPRPILPSVPSWKEAEVQTWLQQIGFSKYCESFREQQVDGDLLLRLTEEELQTDLGMKSGITRKRFFRELTELKTFANYSTCDRSNLADWLGSLDPRFRQYTYGLVSCGLDRSLLHRVSEQQLLEDCGIHLGVHRARILTAAREMLHSPLPCTGGKPSGDTPDVFISYRRNSGSQLASLLKVHLQLHGFSVFIDVEKLEAGKFEDKLIQSVMGARNFVLVLSPGALDKCMQDHDCKDWVHKEIVTALSCGKNIVPIIDGFEWPEPQVLPEDMQAVLTFNGIKWSHEYQEATIEKIIRFLQGRSSRDSSAGSDTSLEGAAPMGPT
In the case of B1, the Km is 33 µM and the kcat stood at 3.65 s⁻¹.

B2: zfSARM1 (zebrafish SARM1, zfSARM1 w.t.) (Danio rerio) (protein)
chain: DRLTVPEYVSSRLHNRRTAPDPRAVSPGISTDVQAVLDGSLPALRSAIRTLRSSKDTGDLEETRRAIAETFQLVEEAWVLPTVGRRVAEEICNRIRLDGGLELLLQLMQTPAVEITYESAKLLEQILVSENRDYVARMGLGVILNLTREQEDAQLARSVSGILEHMFKHTEETSAQLITNGALDTILYWCRGTDPTVLRHCAVALSNCAMYGGHRCQRLMIEKQAAEWLFPLAFSKEDELIRFHACLAVAVLAANREMEKEVVKSGTLELVEPFIASLDPDEFARNMLDSADSMQGRTAADLQHLLPLLDGTRLEGKCIAAFYLCVETSIKSRQRNTKIFQEIGAVQSLKRIVMYSSNATVCSLAKRALKMMSEEVPRRILSSVPNWKSGEVQTWLQQIGFSAFSERFQELQVDGDLLLNITEQDLIQDLGMTSGLTRKRFLRDLRVLKTYANYSTCDPNNLADWLADADPRFRQYTYGLVQSGVDRNNIVHITDQQLLTDCHVENGIHRAKILSAARRPSKPCLTDSQPKGPDVFISYRRTTGSQLASLLKVHLQLRGFSVFIDVEKLEAGRFEEKLITSVQRARNFILVLSANALDKCMGDVAMKDWVHKEIVTALNGKKNIVPVTDNFVWPDPTSLPEDMSTILKFNGIKWSHEYQEATIEKILRFLEGCPSQEKPDGAKTDKKEPQKK
On to B2, for which the Km came out at 28 µM and the kcat is 6.85 s⁻¹.
